Experimental findings from paper PMC9890132 (Molecular Cancer Therapeutics, 2022) are described below.

For experiment [1], the target named is Recombinantly-expressed FolRα extracellular domain (Acro Biosystems) (Homo sapiens, UniProt P15328). Put plainly: SPR. (In SPR one partner is held on a chip, and binding of the other changes the refractive index at the surface.)
The target in experiment [2] is cynomolgus monkey FolRα overexpressed on CHO cells (Macaca fascicularis, UniProt A0A2K5U044). Kind of experiment: flow cytometry on cells. In general terms: Flow cytometry measures light scatter and fluorescence of single cells or particles in a stream.

B1: anti-FolRα antibody SP8166 (antibody, V domains shown)
VH: EVQLVESGGGLVQPGGSLRLSCAASGFNIRTQSIHWVRQAPGKGLEWIGDIFPIDGITDYADSVKGRFTISADTSKNTAYLQMNSLRAEDTAVYYCARGSWSWPSGMDYYLDYWGQGTLVTVSS
VL: not shown
Consider B1, for which, in experiment [1], the Kd was 2.3 nM. In addition, the binding result in experiment [2] was “binds”.

As a reminder, the Kd is the concentration at which binding is half-saturated.
